Measured values reported in patent US20240109965A1 (Ablynx, published 2024).
Where a chain is given by its changes, count along the chain named.

T1: cynomolgus T cell receptor (TCRαβ) on primary cynomolgus T cells (cynomolgus)
T1 V domain 1: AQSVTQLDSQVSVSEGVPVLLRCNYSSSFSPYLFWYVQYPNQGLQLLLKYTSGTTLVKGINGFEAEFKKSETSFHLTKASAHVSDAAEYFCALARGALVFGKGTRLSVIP
T1 V domain 2: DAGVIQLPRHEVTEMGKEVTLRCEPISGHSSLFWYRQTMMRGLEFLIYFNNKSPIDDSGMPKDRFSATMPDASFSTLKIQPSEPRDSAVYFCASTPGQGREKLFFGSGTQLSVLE

T2: cynomolgus TCRαβ-zipper protein (cynomolgus)
T2 construct: also called cyTCR(AEA41865)-zipper; CynoTCRαβ-zipper
T2 TCR alpha: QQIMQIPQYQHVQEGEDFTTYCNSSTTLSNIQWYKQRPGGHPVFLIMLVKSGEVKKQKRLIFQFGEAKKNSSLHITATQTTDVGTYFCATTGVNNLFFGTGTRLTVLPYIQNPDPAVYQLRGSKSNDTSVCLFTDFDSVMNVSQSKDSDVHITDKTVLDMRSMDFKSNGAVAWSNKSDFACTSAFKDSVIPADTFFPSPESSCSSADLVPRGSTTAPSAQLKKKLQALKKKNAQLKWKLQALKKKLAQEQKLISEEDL
T2 TCR beta: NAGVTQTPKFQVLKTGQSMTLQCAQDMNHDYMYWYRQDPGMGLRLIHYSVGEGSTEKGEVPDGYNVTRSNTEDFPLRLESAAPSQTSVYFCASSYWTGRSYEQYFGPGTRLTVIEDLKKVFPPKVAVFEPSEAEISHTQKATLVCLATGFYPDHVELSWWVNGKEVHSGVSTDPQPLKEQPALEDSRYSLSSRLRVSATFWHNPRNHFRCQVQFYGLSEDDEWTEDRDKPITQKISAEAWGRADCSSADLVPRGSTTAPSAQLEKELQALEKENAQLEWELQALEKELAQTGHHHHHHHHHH

B1: T017001017 (bispecific antibody)
chain: EVQLVESGGGVVQPGGSLRLSCVASGYVHKINFYGWYRQAPGKEREKVAHISIGDQTDYADSAKGRFTISRDESKNTVYLQMNSLRPEDTAAYYCRALSRIWPYDYWGQGTLVTVSSGGGGSGGGSEVQLVESGGGVVQPGGSLRLSCAASGTTLDYYVIGWFRQAPGKEREGVSCISSSDGYTYYADSVKGRFTISRDNAKNTVYLQMNSLRPEDTALYYCATDPYYSSCHPFFADYEYDYWGQGTLVTVSSGGGGSGGGSEVQLVESGGGVVQPGGSLRLSCAASGFTFRSFGMSWVRQAPGKGPEWVSSISGSGSDTLYADSVKGRFTISRDNSKNTLYLQMNSLRPEDTALYYCTIGGSLSRSSQGTLVTVSS
B2: T017001025 (bispecific antibody)
chain: B1 chain with E1D, D61E, W102S
B3: T017001026 (bispecific antibody)
chain: B1 chain with E1D, D61E, W102Q
B4: T017001019 (bispecific antibody)
chain: B1 chain with D61E, W102T
B5: T017001021 (bispecific antibody)
chain: B1 chain with D61E, W102Q
B6: T017001018 (bispecific antibody)
chain: B1 chain with D61E, W102Y
B7: T017001023 (bispecific antibody)
chain: B1 chain with E1D, D61E, W102Y
B8: T017001024 (bispecific antibody)
chain: B1 chain with E1D, D61E, W102T
B9: T017001028 (bispecific antibody)
chain: EVQLVESGGGVVQPGGSLRLSCAASGTTLDYYVIGWFRQAPGKEREGVSCISSSDGYTYYADSVKGRFTISRDNAKNTVYLQMNSLRPEDTALYYCATDPYYSSCHPFFADYEYDYWGQGTLVTVSSGGGGSGGGSEVQLVESGGGVVQPGGSLRLSCVASGYVHKINFYGWYRQAPGKEREKVAHISIGDQTDYAESAKGRFTISRDESKNTVYLQMNSLRPEDTAAYYCRALSRIYPYDYWGQGTLVTVSSGGGGSGGGSEVQLVESGGGVVQPGGSLRLSCAASGFTFRSFGMSWVRQAPGKGPEWVSSISGSGSDTLYADSVKGRFTISRDNSKNTLYLQMNSLRPEDTALYYCTIGGSLSRSSQGTLVTVSS
B10: T017001030 (bispecific antibody)
chain: B9 chain with Y238S
B11: T017001027 (bispecific antibody)
chain: B9 chain with E197D, Y238W
B12: T017001020 (bispecific antibody)
chain: B1 chain with D61E, W102S

Target: T3, human T cell receptor (TCRαβ) on primary human T cells (human)
T3 sequence (P0DTU3 134-275, chain 1 of 2): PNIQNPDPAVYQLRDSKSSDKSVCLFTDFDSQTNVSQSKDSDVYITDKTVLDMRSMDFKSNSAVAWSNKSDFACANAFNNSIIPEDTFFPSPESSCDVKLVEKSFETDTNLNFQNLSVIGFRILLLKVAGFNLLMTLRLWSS
T3 sequence (P01850 other isoform, or with tags, fused parts or gaps, chain 2 of 2, further chain): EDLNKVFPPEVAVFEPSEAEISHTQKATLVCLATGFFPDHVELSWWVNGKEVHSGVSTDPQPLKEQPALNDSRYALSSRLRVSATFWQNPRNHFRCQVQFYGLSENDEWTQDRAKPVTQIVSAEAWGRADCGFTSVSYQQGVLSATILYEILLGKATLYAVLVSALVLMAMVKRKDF
Experiment: cell-based or functional assay

Row | Binder | EC50 (M), human T cell mediated MOLM-13 cell killing, Donor #1 [M] | EC50 (M), human T cell mediated MOLM-13 cell killing, Donor #2 [M]
1 | B1 | 4.5e-11 | 9.2e-11
2 | B2 | 6.6e-11 | 3.4e-10
3 | B3 | 3.4e-10 | 4.4e-09
4 | B4 | 1.5e-10 | 5.2e-10
5 | B5 | 2.3e-10 | 2.1e-09
6 | B6 | 3.3e-11 | 1e-10
7 | B7 | 2.4e-11 | 1.1e-10
8 | B8 | – | 9.8e-10
9 | B9 | 6.7e-10 | 3.2e-09
10 | B10 | 5.8e-09 | –
11 | B11 | 5.7e-10 | 2.8e-09

Target: T3, human T cell receptor (TCRαβ) on …
Experiment: cell-based or functional assay
Remark: another data set of the same source

Row | Binder | Potency (M) - human T cells, KG-1a cell killing [M]
12 | B1 | 2.1e-10
13 | B4 | 2.3e-09
14 | B5 | 5.7e-09
15 | B12 | 7.6e-10
16 | B6 | 2.7e-10

Target: T1, cynomolgus T cell receptor (TCRαβ) on …
Experiment: cell-based or functional assay

Row | Binder | Potency (M) - cyno T cells, KG-1a cell killing [M]
17 | B1 | 3.9e-11
18 | B4 | 7.4e-10
19 | B5 | 9.4e-10
20 | B6 | 4e-11

Target: T2, cynomolgus TCRαβ-zipper protein
Experiment: SPR Biacore 8K+, multi-cycle kinetics, TCR-zipper immobilized
Method: Binding of purified TCE-CD123-ALB and CD123-TCE-ALB ISVD constructs to human TCRαβ-zipper protein (huTCR(2XN9)-zipper, in-house produced) and cynomolgus TCRαβ-zipper protein (cyTCR(AEA41865)-zipper, in-house produced) was probed by Surface Plasmon Resonance (SPR) (Cytiva, Biacore 8K+). Both targets were immobilized on a CM5 sensor chip using standard amine coupling chemistry. […] Each concentration of the ISVDs was injected for 180s and dissociation was assessed during 600s.
Data was double referenced by subtracting a reference flow cell (FC) and a blank buffer injection. Affinity constants (ka, kd and KD) were calculated applying the Langmuir 1:1 interaction model using the Biacore Insight Evaluation Software (Cytiva, Version 3.0.12.15655).

Row | Kd [nM] | Binder
21 | 13 | B1
22 | 780 | B2
23 | 3900 | B3
24 | 1600 | B4
25 | 3400 | B5
26 | 550 | B12
27 | 32 | B6
28 | 37 | B7
29 | 2400 | B8
30 | 400 | B9
31 | 3600 | B10
32 | 190 | B11
